Assay results: the DeepSol protein solubility set

experiment: soluble on expression in E. coli; label from the status in PepcDB or PDB records

Soluble on expression in E. coli, not soluble:
MGSDKIHHHHHHMSDKFGEGRDPYLYPGLDIMRNRLNIRQQQRLEQAAYEMTALRAATIELGPLVRGLPHLRTIHRQLYQDIFDWAGQLREVDIYQGDTPFCHFAYIEKEGNALMQDLEEEGYLVGLEKAKFVERLAHYYCEINVLHPFRVGSGLAQRIFFEQLAIHAGYQLSWQGIEKEAWNQANQSGAMGDLTALQMIFSKVVSEAGESE, MGSDKIHHHHHHMSDVDTHPIDRGAGGHNPQKPIRVAQIVGKMVGGGVEAVVMNYYRHIDRSKVQFDFLVDEDSTRVPEEEITSLGGRVFRIPPYQHPIRYRRELIRLMREQQWPIVHSNINTLSVFPLSAAKKVGVPVRIAHSHSTMGKGEFAKNVMKLVLRPFANVYPTVRFACSRYAGKWLFGKNADFTVIPNAIELDKFRFNTEMRKQTRKELGISDDTFLIGHVGRFMPQKNQTFLVDVLAGLLPKRPDAMLAFVGDGPDRTAVQQHVEELGMADHVLFLGQRSDVNRLYQAFDAFCLPSLYEGLGIVAVEAQVADLPCLLSDVVPSEADVTASSYFLQITDVKPWIETLSNLHSSKRSDQISGDIEEYDIQRCANSLVKKYESFICK, MGSDKIHHHHHHMSEDLLNSFQEAYSNLELFPLMERNEMERFRVEYGDDLIADLNQLVEDSPNGDGKIVFTGHRGCGKSTLLAEFSRQIQDKYFVVLFSIADKIEMSAVNHINILFAIAVNLMTEAEARKVDIPQSTKEALYKWFATRTRTEESNLQAEVSIGFDLLKLISSKLKADASVRDEIKQEFERKLSDLVARINEIAALIQAATKQNVLVIIDDLDKLDLGRVNEIYRDNIKALCQPNFQIIYTIPIAVLRETFISTIIATETNDQVVAMPVLKIFDKGKNRFPNAQPRREATKILGEVLQKRIPNELIAAETAEKIVIYSGGVLRELIRISKECCRICLRTIRRNPSAEVIIDDKILLQAINKIRNDFSIRLGKTDIDILQSVYEQFMPNDPKQAEFLDLLHGLYVLEYRTDETWYDVHPIIIESLKRQGAINVK, MGSDKIHHHHHHMSEKSASNNKAEFKRQSSPFREIISADHPIYKPAKGRYWLYVALPCPWAQRTLITRALKGLAPIIGCSVAHWHLDDKGWRFLEEGDGKTNERHWFDIAGGISSVNLNTSTPVANIPNNAHRLLVDGTDEPHYGYKRLSDFYFKTKPDYKGRFTVPVLWDLETCTIVNNESSDIIGIMNSAAFDEFVGEEYRQVRLVPRSLEAQITEFNSWVYDKINNGVYKAGFAECAEVYEREVTSLFQYLDKLENLLDKKYTDLEAEYGKNNKDKILDRYFAIGDTLTEADVRLYPTIVRFDVVYHQHFKCNLATIRDDYSRIHTWLKNIYWRHEAFQRTTDFTHIKLGYTRSQPRVNPIGITPLGPKPDIRPP, MGSDKIHHHHHHMSELPNSHATTLLAAPDTEIDVRETFGIDIDMKVPAFSRADERVPDRDDTYVFDPDTTLAILAGFAYNRRVMVQGYHGTGKSTHIEQVAARLNWPCIRINLDAHISRIDLVGRDAIVLRDGLQVTEFREGLLPWALQTPTALVFDEYDAGRPDVMFVIQRVLETEGKLTLLDQNRVIRPNKFFRLFATANTVGLGDTSGLYHGTQAINQGQMDRWNLVVALNYLPEATEVEIVTKKVPDLDPKIVTDMVRVANLTRQGFINGDISTVMSPRTVISWAQNSQIFNDVGFAFRLSFLNKCDETERVLVAEYYQRVFGKDLPESVAHRG, MGSDKIHHHHHHMSEMMIVAVTGGKGGTGKSTLSANLFFYFIENYKTALIDCDVETPNLPYLTGCEDLFLAREVFIEVPNIEEGKTYNYNNVCKEGALLKVGDKLIFIEDLCSGCKACGINSNITFKKKSIGKIYEKKFDNGYLIVGKSNLGERKTAKIVTETKKYGLSKNCEINIVDTAAGTHCNVVRALINADKVLIVTEPTPFGVSDAKRIIKVVEKLNIPYKIVLNRYGISDLKIGYNFKIPYDKRIVECYCKGESFLKYNDLRNYIEEIANWIIWG, MGSDKIHHHHHHMSEPIIISIHNYKSAGVTFYSIIDRQFKKDEILNSDLLGMDDTYLMLSQADEKIINKIKIIHGHFPFGLDRLLPQKSTYITFLRNPIERLISDYYYCKDFALAHNHSYASTMSFKEYLSCSDILNIDNGQTRFVAGGENVPYGDNSIEMLNRAIENIEKRFSFVGITEKFDESLLIANAVFSWNQYYYTSKNITSSKSYDFDEETWELLRKRNFLDLQLYEYALKKHAGDLKKIPYVKLKMILLKTLKSLFVVTKSIYAPVKKRFFR, MGSDKIHHHHHHMSEQVRSLSEFTAEVEAMTAAMMTEEPQEIASMRCGEMENTAGSYGQYFGTWDIAHGMLRDYSMYTLYPITALAEDAEMDLTSLSKTVDALDPAYSNYLRYSGFPRMGKLAVELRGLIRASTSRSDIVAALRAFTAYTNRLQAWSFHYFPWGLGKHFRYDEARLQDAPLPVADLGATRACITCGQRIRISWEPLGITVNATLASEENPELCADVVAALPFTVIQDHAVVTGESMYAWTPVLSTAPIHLRERICDAPVGRLRYSQSTGQKFIVQYGPTTEDLSQPVLGEIDAADAGKLEQVGRAVWDSTFDNKQLIWMTVELA, MGSDKIHHHHHHMSESAIADFVSSFIPDTATHVEPVRGRVVMSKRRIVLAADDEKTTIPLNGVFDVQHETAPGDLARFFEDTVTIAYEHDEDRHVAVIEGGGSTVDRFVTLVFKALVHGTTVYAKHPARRGGRITDQPFEKGNLALSPGDLTITGDADTTIDLSTVSHFERVDREVNGSNKQLLSVRHMGSTGPITTELALSSGRKMNLLGRYIRLQYTHLKQELADVTLTSEEIEALVAIYSSGPNASLAAVLGVDASRVTMLLNDLIEKELVTDDDGIALTSLGRAAVSEHIEDVNL, MGSDKIHHHHHHMSFSNEDRDVFIIKTDRMIDRGALMSRYSRASDPDIRSVFHREFEGNQKRSEDFYRRIFLEYGDESIAELVTAQVGIQNVSNVISKVIEEIRIGLSYLEKSTRYVAYDRKVDGHYLFMQAEKIGLSGEAAREYTDLCNRLFDLYSSTLPRIEEEISRQWPIESFDFNIDGNPRNYKELDENGRKLAQKSYRSSVRSRALDDARFILPASTLTNMGVSGNGRSFIHLIQKLMEYGVPESERLAHDLYEELKGEFPQIIDDALSQHGQDIINYKRSLASLFPYTDGGRFEKVRLIKYSNEREEMQKVLALLMYPFAEDASGIISRIKAMELSEASAILERIRDLRKNRRMKVGRPFEAVNYVFEVTTNYGAFRDLQRHRFLSIVRKPLTVSYGFDVPPIIAKMPDLSEEYAEAMKDAERVYRIIKERYGAWIAQYAVPFAYRYPVVFTTNLAEATYFIELRSTPQAHFDLRDIAIRMYNEIKSVHPSLAGIIKFVDTGDYPLGRLSAEVRKNVKAGGI, MGSDKIHHHHHHMSGKLTVITGPMYSGKTTELLSFVEIYKLGKKKVAVFKPKIDSRYHSTMIVSHSGNGVEAHVIERPEEMRKYIEEDTRGVFIDEVQFFNPSLFEVVKDLLDRGIDVFCAGLDLTHKQNPFETTALLLSLADTVIKKKAVCHRCGEYNATLTLKVAGGEEEIDVGGQEKYIAVCRDCYNTLKKRV, MGSDKIHHHHHHMSHRKALLIHNGNAANKNIEKALGAVVPVLSHHLDEVIIKQTKKKDHAYHFCRSIDDSVDTVFILGGDGTIHQCINAISALERKPAVGILPGGTSNDFSRVLGIPQNLAKAAEALMAGKKTSVDVCQMNDRYFLNFWGIGLIAETSNQINETEKALLGKISYFTSALRTVSSAASFPMTLKIDGEEIKEEAVMLLVMNGQYIGTNRIPLPDASIEDGLLDVLICRNTNLTALRELMSMEQGSIDRFTGELSYVQASRIEIETDTAKKADMDGEVYTHTPAVIQVLPQHIDMLVPANE, MGSDKIHHHHHHMSIEAYDQLAIFAVVARERSFTRAAARLGMSQPALSRAMRQLEERLGIRLLARTTRSVSATEAGEHLLRVVAPRFEEIDTELALLSQFRDKPAGRLRITAGEHPAVTILQPALAKILPDHPDIRVEVIVDYGLTDIVAEGYDAGVRLGEQIAKDMIAVRIGPEVRMAVVGSPDYFARHPRPRTPRDLIRHNCIAIRLPTYGGIFPWEFEKKGEELKVRVEGQLVFNNIAMRLDAALRGLGLTYMPEDLVKAHVREGVLVRVLSDWCPPIPGYHLYYPSRRQSSPAFTVLRDALRYLG
